Target: HLA-A*02:01 (human)
Assay: UV-exchange b2m ELISA; exchange-yield grade
Details: remark: other sources report otherwise

peptide exchange yield: 50 to 75%
Binder: SVFAHPRKL […]

— patent US20180222961A1
